In patent publication EP4674868A1 (Jiangsu Hengrui Pharmaceuticals Co., Ltd., dated 2026):
Changes are numbered by the printed parent chain. Read-outs that look alike come from different tables or passages of the source. One block for each binder: values may come before it.

Tests used:
[1] = molecular target: T1, human 4-1BB on the surface of HEK293 cells (HEK293-Hu4-1BB) (human, UniProt Q07011 24-255); assay: cell-based or functional assay
[2] = molecular target: T2, human CD40 on the surface of HEK293 cells (HEK293-HuCD40) (human, UniProt P25942 21-277); assay: cell-based or functional assay
[3] = molecular target: T1, human 4-1BB on the surface of HEK293 …; assay: FACS, HEK293-Hu4-1BB cells
[4] = molecular target: T1, human 4-1BB on the surface of HEK293 …; assay: FACS, HEK293-Hu4-1BB cells; remark: listed apart in the source
[5] = molecular target: T1, human 4-1BB on the surface of HEK293 …; assay: cell-based or functional assay; remark: listed apart in the source
[6] = molecular target: T1, human 4-1BB on the surface of HEK293 …; assay: FACS, HEK293-Hu4-1BB cells; remark: listed apart in the source
[7] = molecular target: T3, human FAP on the surface of CHO-K1 cells (CHO-K1-HuFAP) (human, UniProt Q12884 1-760); assay: FACS, CHO-K1-HuFAP cells
T3 construct: whole, on cells; also called CHO cell line overexpressing human FAP; FAP on the surface of CHO-K1-HuFAP cells

[8] = molecular target: T1, human 4-1BB on the surface of HEK293 …; assay: cell-based or functional assay; remark: listed apart in the source
[9] = molecular target: T2, human CD40 on the surface of HEK293 …; assay: FACS, HEK293-HuCD40 cells
[10] = molecular target: T3, human FAP on the surface of CHO-K1 …; assay: FACS, CHO-K1-HuFAP cells; remark: listed apart in the source
[11] = molecular target: T2, human CD40 on the surface of HEK293 …; assay: FACS, HEK293-HuCD40 cells; remark: listed apart in the source
[12] = molecular target: T2, human CD40 on the surface of HEK293 …; assay: cell-based or functional assay; remark: listed apart in the source
[13] = molecular target: T1, human 4-1BB on the surface of HEK293 …; assay: FACS, HEK293-Hu4-1BB cells; remark: listed apart in the source
[14] = molecular target: T4, h-FAP-His (recombinant human fibroblast activation protein, Leu26-Asp760, His-tagged) (human, UniProt Q12884 26-760); assay: SPR, antibody captured by anti-human IgG (Fc) on CM5 chip, h-FAP-His as analyte
T4 construct: range 26-760; Bought protein with a His tag; also called human FAP-His protein; His-tagged FAP recombinant protein

4-1BB/NF-κB luciferase reporter, CD40-crosslinked, Fold change in Emax [1]: 1.11 fold
4-1BB/NF-κB luciferase reporter, FAP-crosslinked, EC50 [1]: 0.02 nM
4-1BB/NF-κB luciferase reporter, FAP-crosslinked, Fold change in Emax [1]: 13.8 fold
4-1BB/NF-κB luciferase reporter, uncrosslinked, Fold change in Emax [1]: 1.01 fold
CD40/NF-κB reporter (HEK-Blue CD40L), 4-1BB-crosslinked, Fold change in Emax [2]: 1.01 fold
CD40/NF-κB reporter (HEK-Blue CD40L), FAP-crosslinked, Fold change in Emax [2]: 0.99 fold
CD40/NF-κB reporter (HEK-Blue CD40L), uncrosslinked, Fold change in Emax [2]: 1.03 fold
B1: MP0310 (FAP/4-1BB bispecific antibody molecule, control) (other)
chain: GSDLGKKLLEAARAGQDDEVRELLKAGADVNAKDYFSHTPLHLAARNGHLKIVEVLLKAGADVNAKDFAGKTPLHLAAADGHLEIVEVLLKAGADVNAQDIFGKTPADIAADAGHEDIAEVLQKAAGSPTPTPTTPTPTPTTPTPTPTGSDLGKKLLEAARAGQDDEVRELLKAGADVNAKDVLGWTPLHLAAFEGHLEIVEVLLKAGADVNAKDKKGWTPLQLAARTGHLEIVEVLLKAGADVNAKDHIGATPLHLAAWQGHPEIVEVLLKAGADVNAQDKSGKTPADLAADAGHEDIAEVLQKAAGSPTPTPTTPTPTPTTPTPTPTGSDLGQKLLKAAQEGQDDEVRELLKAGADVNAKDLRGITPLHVAAWQGHLEIVEVLLKAGADVNAKDSKGETPLHLAAFRGHLEIVEVLLKAGADVNAQDQQGETPADLAALAGHVDIAEVLQKAAGSPTPTPTTPTPTPTTPTPTPTGSDLGQKLLKAAQEGQDDEVRELLKAGADVNAKDLRGITPLHVAAWQGHLEIVEVLLKAGADVNAKDSKGETPLHLAAFRGHLEIVEVLLKAGADVNAQDQQGETPADLAALAGHVDIAEVLQKAAGSPTPTPTTPTPTPTTPTPTPTGSDLGKKLLEAARAGQDDEVRELLKAGADVNAKDYFSHTPLHLAARNGHLKIVEVLLKAGADVNAKDFAGKTPLHLAAADGHLEIVEVLLKAGADVNAQDIFGKTPADIAADAGHEDIAEVLQKAAHHHHHH

EC50 [3]: 0.7 nM
Maximum fluorescence value [3]: 51700
B2: C5_V2-YTIQ linked to human IgG1-Fc (Fc fusion)
chain: QVQLVESGGGLVQPGGSLRLSCSASGFTFSSYAMSWVRQAPGKGLEWVSDINSGGQSTFYADSVKGRFTISRDNAKNTLYLQMNSLRAEDTAVYYCAKHPLTYTIATMNDYDYWGQGTQVTVSSEPKSADKTHTCPPCPAPELLGGPSVFLFPPKPKDTLMISRTPEVTCVVVDVEHEDPEVKFNWYVDGVEVHNAKTKPREEQYNSTYRVVSVLTVLHQDWLNGKEYKCKVSSKAFPAPIEKTISKAKGQPREPQVYTLPPSRDELTKNQVSLTCLVKGFYPSDIAVEWESNGQPENNYKTTPPVLDSDGSFFLYSKLTVDKSRWQQGNVFSCSVMHEALHNHYTQKSLSLSPGK

EC50 [4]: 1.65 nM
B3: humanized anti-4-1BB nanobody C5_V3 linked to human IgG1-Fc (Fc fusion)
chain: B2 chain with Q56E, A61E, R87K, A88P, Y103F, Q119L

EC50 [4]: 3.79 nM
Maximum fluorescence value [4]: 1040
Activation of HEK293-4-1BB cells (NF-κB reporter), Fold change in Emax [5]: 1.14 fold
FcγRIIb-mediated activation of HEK293-4-1BB cells (NF-κB reporter), Fold change in Emax [5]: 2.28 fold
B4: humanized anti-4-1BB nanobody C5_V1 linked to human IgG1-Fc (Fc fusion)
chain: B2 chain with Q56E, A61E, K98R, Y103F, Q119L

EC50 [6]: 2.17 nM
Maximum fluorescence value [6]: 25700
Maximum fluorescence value [7]: 77
4-1BB/NF-κB luciferase reporter, CD40-crosslinked, EC50 [8]: 1.65 nM
4-1BB/NF-κB luciferase reporter, CD40-crosslinked, Fold change in Emax [8]: 4.76 fold
4-1BB/NF-κB luciferase reporter, FAP-crosslinked, EC50 [8]: 0.293 nM
4-1BB/NF-κB luciferase reporter, FAP-crosslinked, Fold change in Emax [8]: 1.19 fold
4-1BB/NF-κB luciferase reporter, uncrosslinked, Fold change in Emax [8]: 1.09 fold
EC50 [9]: 2.77 nM
Maximum fluorescence value [9]: 109000
4-1BB/NF-κB luciferase reporter, CD40-crosslinked, EC50 [1]: 0.41 nM
4-1BB/NF-κB luciferase reporter, CD40-crosslinked, Fold change in Emax [1]: 3.56 fold
4-1BB/NF-κB luciferase reporter, FAP-crosslinked, Fold change in Emax [1]: 1.01 fold
4-1BB/NF-κB luciferase reporter, uncrosslinked, Fold change in Emax [1]: 1.1 fold
Maximum fluorescence value [10]: 449
EC50 [11]: 6.78 nM
Maximum fluorescence value [11]: 108000
CD40/NF-κB reporter (HEK-Blue CD40L), 4-1BB-crosslinked, EC50 [12]: 1.03 nM
CD40/NF-κB reporter (HEK-Blue CD40L), 4-1BB-crosslinked, Fold change in Emax [12]: 5.97 fold
CD40/NF-κB reporter (HEK-Blue CD40L), FAP-crosslinked, Fold change in Emax [12]: 5.41 fold
CD40/NF-κB reporter (HEK-Blue CD40L), uncrosslinked, Fold change in Emax [12]: 5.06 fold
EC50 [13]: 0.77 nM
Maximum fluorescence value [13]: 29300
CD40/NF-κB reporter (HEK-Blue CD40L), 4-1BB-crosslinked, EC50 [2]: 0.69 nM
CD40/NF-κB reporter (HEK-Blue CD40L), 4-1BB-crosslinked, Fold change in Emax [2]: 9.51 fold
CD40/NF-κB reporter (HEK-Blue CD40L), FAP-crosslinked, Fold change in Emax [2]: 6.27 fold
CD40/NF-κB reporter (HEK-Blue CD40L), uncrosslinked, Fold change in Emax [2]: 7.66 fold
B5: BNT312 (CD40/4-1BB bispecific antibody molecule, control) (bispecific antibody, human IgG1, kappa)
heavy 1: EVQLVQSGAEVKKPGASVKVSCKTSGYTFTEYIMHWVRQAPGQGLEWMGGIIPNNGGTSYNQKFQGRVTMTVDKSTSTGYMELSSLRSEDTAVYYCTRREVYGRNYYALDYWGQGTLVTVSSASTKGPSVFPLAPSSKSTSGGTAALGCLVKDYFPEPVTVSWNSGALTSGVHTFPAVLQSSGLYSLSSVVTVPSSSLGTQTYICNVNHKPSNTKVDKRVEPKSCDKTHTCPPCPAPEFEGGPSVFLFPPKPKDTLMISRTPEVTCVVVAVSHEDPEVKFNWYVDGVEVHNAKTKPREEQYNSTYRVVSVLTVLHQDWLNGKEYKCKVSNKALPAPIEKTISKAKGQPREPQVYTLPPSREEMTKNQVSLTCLVKGFYPSDIAVEWESNGQPENNYKTTPPVLDSDGSFLLYSKLTVDKSRWQQGNVFSCSVMHEALHNHYTQKSLSLSPGK
light 1: not shown
heavy 2: EVQLVESGGGLVQPGRSLRLSCTASGFSLNDYWMSWVRQAPGKGLEWVGYIDVGGSLYYAASVKGRFTISRDDSKSIAYLQMNSLKTEDTAVYYCARGGLTYGFDLWGQGTLVTVSSASTKGPSVFPLAPSSKSTSGGTAALGCLVKDYFPEPVTVSWNSGALTSGVHTFPAVLQSSGLYSLSSVVTVPSSSLGTQTYICNVNHKPSNTKVDKRVEPKSCDKTHTCPPCPAPEFEGGPSVFLFPPKPKDTLMISRTPEVTCVVVAVSHEDPEVKFNWYVDGVEVHNAKTKPREEQYNSTYRVVSVLTVLHQDWLNGKEYKCKVSNKALPAPIEKTISKAKGQPREPQVYTLPPSREEMTKNQVSLTCLVKGFYPSDIAVEWESNGQPENNYKTTPPVLDSDGSFFLYSRLTVDKSRWQQGNVFSCSVMHEALHNHYTQKSLSLSPGK
light 2: DIVMTQSPSSLSASVGDRVTITCQASEDISSYLAWYQQKPGKAPKRLIYGASDLASGVPSRFSASGSGTDYTFTISSLQPEDIATYYCHYYATISGLGVAFGGGTKVEIKRTVAAPSVFIFPPSDEQLKSGTASVVCLLNNFYPREAKVQWKVDNALQSGNSQESVTEQDSKDSTYSLSSTLTLSKADYEKHKVYACEVTHQGLSSPVTKSFNRGEC

Kd [14]: 1.31 nM
Ratio of KD of 28H1 to KD of test antibody [14]: 1
Ratio of Kd of 28H1 to Kd of test antibody [14]: 1
koff [14]: 0.000255 s⁻¹
kon [14]: 195000 M⁻¹ s⁻¹
B6: control anti-FAP antibody 28H1 (antibody, V domains shown)
VH: EVQLLESGGGLVQPGGSLRLSCAASGFTFSSHAMSWVRQAPGKGLEWVSAIWASGEQYYADSVKGRFTISRDNSKNTLYLQMNSLRAEDTAVYYCAKGWLGNFDYWGQGTLVTVSS
VL: EIVLTQSPGTLSLSPGERATLSCRASQSVSRSYLAWYQQKPGQAPRLLIIGASTRATGIPDRFSGSGSGTDFTLTISRLEPEDFAVYYCQQGQVIPPTFGQGTKVEIK
